Measurements published in patent US20110263454A1, “Methods of Identifying Functional Characteristics of Promoters, Transcription Modifying Proteins and Transcription Modulating Agents” (Salk Institute for Biological Studies, priority 2008, published 2011).

How the values were obtained:
mDio1 promoter = assay: NHR-promoter luciferase screen, mDio1 promoter; assay type: cell-based, mouse; settings: for Luc. act., normalized to lacZ / Normalized Luc. act., normalized to control: Dio1, HR component without or with its ligand; for mDio1 promoter reporter activity: transcription factor +/- ligand, control = 1.00
Description: (§1) The use, feasibility, and reproducibility of the functional NHR-promoter screen in a 48-well format have been tested validated. Briefly, there were co-expressed 50 ng of each NHR/NHR homodimer or NHR/RXR heterodimer with 100 ng promoter/luciferase construct and 50 ng of LacZ (as a control for transfection efficiency) in CV-1 cells using Fugene HD (Roche) as a transfection reagent (alternatively or additionally, a CMV-YFP construct can be used as a transfection control). Each of the nuclear hormone receptors that were used in these experiments was cloned into a pcDNA3.1 vector and comprised a C-terminally linked V5H6 tag. Twenty-four hours after transfection, appropriate ligands were added, where applicable, (see Table 5 for various ligands and concentrations and after 48 hrs, samples were assayed for luciferase and LacZ activity. To measure for luciferase activity 15 ul of sample was added to 30 ul of luciferase buffer (20 mM tricine, 1.07 mM MgCarbonate, 2.67 mM MgSulfate, 0.1 mM Naz-EDTA, 5 mM DTT, 5 mM ATP, 0.15 mg/ml CoA, 0.5 mM Luciferin), mixed briefly, and run in a Perkin Elmer Victor 5 luminometer. Thus, the functional NHR-promoter screen was used to observe the transcriptional activity of 29 promoters from various physiological pathways including inflammation, lipid and sugar metabolism, cholesterol transport, xenobiotic metabolism, and circadian rhythm.
(§2) The promoters that facilitate transcription of the indicated gene products that were tested using the protocols described herein are listed in the first row of the table. The nuclear hormone receptors and, where applicable, ligands that were assayed for their transcriptional effects on the promoters are listed in the first column of the table. The data represent the luciferase activity of each sample normalized to both the lacZ activity of that sample and to a control, e.g., no NHR or ligand, as customary in the art. As described previously, these normalizations allow the transcriptional activity of each reporter cell to be compared to other samples.
(§3) Tables 7-40 show the transcriptional effects of the hormone receptors, and, where applicable, ligands (orphan receptors are screened without ligand), on each individual promoter. […] The control data of each table are shown in their last rows.

mGhrelin promoter = assay: NHR-promoter luciferase screen, mGhrelin promoter; assay type: cell-based, mouse; settings: for Luc. act., normalized to lacZ / Normalized Luc. act., normalized to control: Table 8, mGhrelin; for Results of assays of transcription factor (+/- ligand) with mGhrelin: Table 6d, luciferase activity relative to control (control = 1.00)
Description: as §1, §2, §3

hCAR promoter = assay: NHR-promoter luciferase screen, hCAR promoter; assay type: cell-based, human; settings: for luciferase activity normalized to lacZ activity and to a control, hCAR: hCAR promoter-luciferase, CV-1 cells, NHR +/- ligand, control = 1.00; for Luc. act., normalized to lacZ / Normalized Luc. act., normalized to control: hCAR promoter, HR/ligand component
Description: as §1, §2, §3

mNPY promoter = assay: NHR-promoter luciferase screen, mNPY promoter; assay type: cell-based, mouse; settings: for Results of assays of transcription factor (+/- ligand) with mNPY: Table 6d, luciferase activity relative to control (control = 1.00); for Luc. act., normalized to lacZ / Normalized Luc. act., normalized to control: mNPY promoter, HR component with or without ligand; for Normalized Luc. act., normalized to control: relative to control
Description: as §1, §2, §3

mCAR promoter = assay: NHR-promoter luciferase screen, mCAR promoter; assay type: cell-based, mouse; settings: for luciferase activity normalized to lacZ activity and to a control, mCAR: mCAR promoter-luciferase, CV-1 cells, NHR +/- ligand, control = 1.00; for Luc. act., normalized to lacZ / Normalized Luc. act., normalized to control: mCAR promoter, HR/ligand component
Description: as §1, §2, §3

Molecule	Luc. act., normalized to lacZ (mDio1 promoter)	Normalized Luc. act., normalized to control (mDio1 promoter)	mDio1 promoter reporter activity (mDio1 promoter)	Luc. act., normalized to lacZ (mGhrelin promoter)	Normalized Luc. act., normalized to control (mGhrelin promoter)	Results of assays of transcription factor (+/- ligand) with mGhrelin (mGhrelin promoter)	luciferase activity normalized to lacZ activity and to a control, hCAR (hCAR promoter)	Luc. act., normalized to lacZ (hCAR promoter)	Normalized Luc. act., normalized to control (hCAR promoter)	Results of assays of transcription factor (+/- ligand) with mNPY (mNPY promoter)	Luc. act., normalized to lacZ (mNPY promoter)	Normalized Luc. act., normalized to control (mNPY promoter)	luciferase activity normalized to lacZ activity and to a control, mCAR (mCAR promoter)	Luc. act., normalized to lacZ (mCAR promoter)	Normalized Luc. act., normalized to control (mCAR promoter)
RVRb: Rev-Erb β (NR1D2, alternative name RVR), cDNA driver (protein, UniProt Q14995 1-579, looked up) Nuclear receptor subfamily 1 …: MEVNAGGVIAYISSSSSASSPASCHSEGSENSFQSSSSSVPSSPNSSNSDTNGNPKNGDLANIEGILKNDRIDCSMKTSKSSAPGMTKSHSGVTKFSGMVLLCKVCGDVASGFHYGVHACEGCKGFFRRSIQQNIQYKKCLKNENCSIMRMNRNRCQQCRFKKCLSVGMSRDAVRFGRIPKREKQRMLIEMQSAMKTMMNSQFSGHLQNDTLVEHHEQTALPAQEQLRPKPQLEQENIKSSSPPSSDFAKEEVIGMVTRAHKDTFMYNQEQQENSAESMQPQRGERIPKNMEQYNLNHDHCGNGLSSHFPCSESQQHLNGQFKGRNIMHYPNGHAICIANGHCMNFSNAYTQRVCDRVPIDGFSQNENKNSYLCNTGGRMHLVCPMSKSPYVDPHKSGHEIWEEFSMSFTPAVKEVVEFAKRIPGFRDLSQHDQVNLLKAGTFEVLMVRFASLFDAKERTVTFLSGKKYSVDDLHSMGAGDLLNSMFEFSEKLNALQLSDEEMSLFTAVVLVSADRSGIENVNSVEALQETLIRALRTLIMKNHPNEASIFTKLLLKLPDLRSLNNMHSEELLAFKVHP	8.8	2.0	1.97	126.8	2.4	2.43	1.13	35.7	1.1	1.67	140.6	1.7	0.91	34.5	0.9
RARg: Retinoic acid receptor γ (NR1B3), nuclear hormone receptor cDNA driver (protein, UniProt P13631 1-454, looked up) Retinoic acid receptor gamma: MATNKERLFAAGALGPGSGYPGAGFPFAFPGALRGSPPFEMLSPSFRGLGQPDLPKEMASLSVETQSTSSEEMVPSSPSPPPPPRVYKPCFVCNDKSSGYHYGVSSCEGCKGFFRRSIQKNMVYTCHRDKNCIINKVTRNRCQYCRLQKCFEVGMSKEAVRNDRNKKKKEVKEEGSPDSYELSPQLEELITKVSKAHQETFPSLCQLGKYTTNSSADHRVQLDLGLWDKFSELATKCIIKIVEFAKRLPGFTGLSIADQITLLKAACLDILMLRICTRYTPEQDTMTFSDGLTLNRTQMHNAGFGPLTDLVFAFAGQLLPLEMDDTETGLLSAICLICGDRMDLEEPEKVDKLQEPLLEALRLYARRRRPSQPYMFPRMLMKITDLRGISTKGAERAITLKMEIPGPMPPLIREMLENPEMFEDDSSQPGPHPNASSEDEVPGGQGKGGLKSPA	7.2	1.6	1.61	88.8	1.7	1.70	0.99	31.4	1.0	1.20	100.5	1.2	1.24	47.1	1.2
RARb: Retinoic acid receptor β (NR1B2), nuclear hormone receptor cDNA driver (protein, UniProt P10826 1-455, looked up) Retinoic acid receptor beta: MTTSGHACPVPAVNGHMTHYPATPYPLLFPPVIGGLSLPPLHGLHGHPPPSGCSTPSPATIETQSTSSEELVPSPPSPLPPPRVYKPCFVCQDKSSGYHYGVSACEGCKGFFRRSIQKNMIYTCHRDKNCVINKVTRNRCQYCRLQKCFEVGMSKESVRNDRNKKKKETSKQECTESYEMTAELDDLTEKIRKAHQETFPSLCQLGKYTTNSSADHRVRLDLGLWDKFSELATKCIIKIVEFAKRLPGFTGLTIADQITLLKAACLDILILRICTRYTPEQDTMTFSDGLTLNRTQMHNAGFGPLTDLVFTFANQLLPLEMDDTETGLLSAICLICGDRQDLEEPTKVDKLQEPLLEALKIYIRKRRPSKPHMFPKILMKITDLRSISAKGAERVITLKMEIPGSMPPLIQEMLENSEGHEPLTPSSSGNTAEHSPSISPSSVENSGVSQSPLVQ	6.8	1.5	1.54	84.4	1.6	1.61	1.31	41.4	1.3	1.17	97.9	1.2	1.30	49.6	1.3
PPARd: Peroxisome proliferator activated receptor δ (NR1C2), cDNA driver (protein, UniProt Q03181 1-441, looked up) Peroxisome …: MEQPQEEAPEVREEEEKEEVAEAEGAPELNGGPQHALPSSSYTDLSRSSSPPSLLDQLQMGCDGASCGSLNMECRVCGDKASGFHYGVHACEGCKGFFRRTIRMKLEYEKCERSCKIQKKNRNKCQYCRFQKCLALGMSHNAIRFGRMPEAEKRKLVAGLTANEGSQYNPQVADLKAFSKHIYNAYLKNFNMTKKKARSILTGKASHTAPFVIHDIETLWQAEKGLVWKQLVNGLPPYKEISVHVFYRCQCTTVETVRELTEFAKSIPSFSSLFLNDQVTLLKYGVHEAIFAMLASIVNKDGLLVANGSGFVTREFLRSLRKPFSDIIEPKFEFAVKFNALELDDSDLALFIAAIILCGDRPGLMNVPRVEAIQDTILRALEFHLQANHPDAQYLFPKLLQKMADLRQLVTEHAQMMQRIKKTETETSLHPLLQEIYKDMY	10.0	2.2	2.23	56.1	1.1	1.07	1.22	38.6	1.2	0.70	58.5	0.7	0.79	30.1	0.8
RARa: Retinoic acid receptor α (NR1B1), nuclear hormone receptor cDNA driver (protein, UniProt P10276 1-462, looked up) Retinoic acid receptor alpha: MASNSSSCPTPGGGHLNGYPVPPYAFFFPPMLGGLSPPGALTTLQHQLPVSGYSTPSPATIETQSSSSEEIVPSPPSPPPLPRIYKPCFVCQDKSSGYHYGVSACEGCKGFFRRSIQKNMVYTCHRDKNCIINKVTRNRCQYCRLQKCFEVGMSKESVRNDRNKKKKEVPKPECSESYTLTPEVGELIEKVRKAHQETFPALCQLGKYTTNNSSEQRVSLDIDLWDKFSELSTKCIIKTVEFAKQLPGFTTLTIADQITLLKAACLDILILRICTRYTPEQDTMTFSDGLTLNRTQMHNAGFGPLTDLVFAFANQLLPLEMDDAETGLLSAICLICGDRQDLEQPDRVDMLQEPLLEALKVYVRKRRPSRPHMFPKMLMKITDLRSISAKGAERVITLKMEIPGSMPPLIQEMLENSEGLDTLSGQPGGGGRDGGGLAPPPGSCSPSLSPSSNRSSPATHSP	7.4	1.7	1.66	67.2	1.3	1.29	1.05	33.2	1.1	1.24	103.8	1.2	1.22	46.3	1.2
